This note sets out measurements from patent US20210270842A1 (DYAX, published 2021).

Assay [1] has as its target T1, cleaved high molecular weight kininogen (HMWK) (human, UniProt P01042 19-380; P01042 390-644).
T1 construct: also called cleaved HMWK; 2-chain HMWK
T1 sequence 1: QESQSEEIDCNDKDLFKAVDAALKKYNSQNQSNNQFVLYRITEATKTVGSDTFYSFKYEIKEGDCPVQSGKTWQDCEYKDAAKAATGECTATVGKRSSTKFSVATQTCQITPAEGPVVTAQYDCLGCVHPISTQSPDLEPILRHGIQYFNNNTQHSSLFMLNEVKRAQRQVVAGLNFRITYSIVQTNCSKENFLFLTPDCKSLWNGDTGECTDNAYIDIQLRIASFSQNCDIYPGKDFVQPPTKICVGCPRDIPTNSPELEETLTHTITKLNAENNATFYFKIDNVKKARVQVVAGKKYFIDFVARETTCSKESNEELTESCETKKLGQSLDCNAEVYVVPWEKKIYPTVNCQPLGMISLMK
T1 sequence 2: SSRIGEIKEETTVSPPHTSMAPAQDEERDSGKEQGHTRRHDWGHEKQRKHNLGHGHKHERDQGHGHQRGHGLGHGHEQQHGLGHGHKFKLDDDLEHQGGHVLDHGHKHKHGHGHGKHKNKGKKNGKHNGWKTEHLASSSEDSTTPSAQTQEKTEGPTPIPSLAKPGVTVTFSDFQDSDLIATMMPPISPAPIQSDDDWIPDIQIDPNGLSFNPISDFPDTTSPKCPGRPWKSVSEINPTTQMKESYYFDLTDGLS
In words: ELISA on coated M004-B04, 2-chain HMWK titrated after preincubation of the plate with GCP28 peptide at 250 µg/mL; value = C of the printed 4-P fit; triangles, curve on the control's (the callout box on the graph names this curve HKH20: see recheck). How it is done:
(§1) Following plate washing with PBST, a mixture of 2 mouse monoclonal antibodies (11H05 and 13B12) at 1 μg/mL in 2-chain HMWK assay buffer were added for 1 hour at room temperature. Unbound detection antibodies were washed and a 1:2000 dilution of goat anti-mouse secondary antibody conjugated to horseradish peroxidase (HRP) was added. The assay containing the secondary antibody was incubated for 1 hour at room temperature, and unbound secondary antibody was removed by washing with 2-chain HMWK assay buffer. Signal was detected by the addition of 3,3′,5,5′-tetramethylbenzidine (TMB), an HRP substrate. The reaction was stopped with phosphoric acid. Hydrolysis of a TMB substrate was detected using a microplate reader at 450 nm-630 nm (FIG. 3). […] Using these immunoassay conditions, specifically binding to cleaved HMWK was detected.
(§2) To perform the assay, the kininogen peptides were diluted to 250 μg/mL and allowed to preincubate on assay plate. Then, purified 2-chain HMWK in deficient human plasma was diluted 160 and then added to plate.
(In general: In an ELISA, binding on a coated surface is turned into a signal by an enzyme label.)

The target in assay [2] is T1, cleaved high molecular weight kininogen …. The assay is described as follows: ELISA on coated M004-B04, 2-chain HMWK titrated after preincubation of the plate with competitor HKH20 peptide at 250 µg/mL; value = C of the printed 4-P fit; squares, right-shifted curve (the callout box on the graph names this curve GCP28: see recheck). As to the method: as §1, §2
Assay [3] shares this target. The assay is described as follows: sandwich ELISA: Fab coated on 96-well plate, kininogen titrated, detection 11H05 + 13B12 and goat anti-mouse-HRP; value = C, midpoint of the printed 4-P fit; 2-chain HMWK spiked into SBT assay buffer. The text has this:
(§3) Purified cleaved HMWK was spiked into SBT assay buffer (circles) or HMWK-deficient plasma (squares). Purified intact HMWK was spiked into SBT assay buffer (triangles). Purified LMWK was spiked into SBT assay buffer (diamonds). The y-axis presents the ELISA signal in absorbance units, and the x-axis presents the concentration of kininogen in μg/mL.
(§4) The following day, the plate was washed and then blocked with 2% BSA (Protease/IgG free) in PBS buffer. Following a wash, samples containing cleaved HMWK in 0.1% BSA buffer in PBS with 0.05% Tween-20 (2-Chain HMWK assay buffer). Purified protein standards (e.g., 2-chain HMWK, intact HMWK or LMWK) were spiked into HMWK-deficient plasma and diluted 1:320 in 2-chain HMWK assay buffer. Following plate washing with PBST, a mixture of 2 mouse monoclonal antibodies (11H05 and 13B12) at 1 μg/mL in 2-chain HMWK assay buffer were added for 1 hour at room temperature. Unbound detection antibodies were washed and a 1:2000 dilution of goat anti-mouse secondary antibody conjugated to horseradish peroxidase (HRP) was added. […] Signal was detected by the addition of 3,3′,5,5′-tetramethylbenzidine (TMB), an HRP substrate. […] Hydrolysis of a TMB substrate was detected using a microplate reader at 450 nm-630 nm (FIG. 3). […] Using these immunoassay conditions, specifically binding to cleaved HMWK was detected.

For assay [4] the target is unchanged. In words: 2-chain HMWK sandwich ELISA standard curve, citrated plasma spiked with 2-chain HMWK, 10% final dilution; capture Fab M0004-B04 as in FIG. 12 B.
Assay [5] shares this target. The assay is described as follows: sandwich ELISA: Fab coated on 96-well plate, kininogen titrated, detection 11H05 + 13B12 and goat anti-mouse-HRP; value = C, midpoint of the printed 4-P fit; 2-chain HMWK spiked into HMWK-deficient plasma.
Text: as §3, §4

B1: 559B-M0004-B04 (Fab, V domains shown)
VH: EVQLLESGGGLVQPGGSLRLSCAASGFTFSFYVMVWVRQAPGKGLEWVSGISPSGGNTAYADSVKGRFTISRDNSKNTLYLQMNSLRAEDTAVYYCARKLFYYDDTKGYFDFWGQGTLVTVSS
VL: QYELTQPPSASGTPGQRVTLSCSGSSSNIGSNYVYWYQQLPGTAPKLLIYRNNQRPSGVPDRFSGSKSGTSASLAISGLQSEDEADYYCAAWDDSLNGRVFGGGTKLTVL
notes: also called M004-B04
Turning to B1, the EC50 was 9.41 ng/mL in assay [1], 0.0375 µg/mL in assay [2], 235 µg/mL in assay [3] and 247 µg/mL in assay [5]. Also, the “EC50 (read off the curve)” value in assay [4] is around 100 ng/mL.

Broadly, the EC50 is the concentration at which the effect is half-maximal. What is called EC50 (read off the curve) is the concentration at which the effect is half-maximal. A higher EC50 (read off the curve) goes with a less potent agent.
